According to patent US20250296971A1, “GASTRIC INHIBITORY PEPTIDE RECEPTOR LIGANDS” (priority 2021, published 2025):
*1 amine or outer side, *2 acyl side, *3 side chain or, on linkers, in order; H or OH if unused. Bridges are numbered along the chain shown (N, C = ends). Primed or numbered codes have the meaning given here. [ ]: non-standard residue; d: D form. The star is where a group is joined. 3‑methylbenzoyl = 3-methylbenzoyl group bridging Dap and AET, O=C(c1cccc(C[*:3])c1)[*:2]; Ttds = 1,13-diamino-4,7,10-trioxatridecan-succinamic acid, NCCCOCCOCCOCCCNC(=O)CCC(=O)*; dE(AGLU) = D-glutamic acid bearing 1-amino-1-deoxy-D-glucitol; Pro(trans-4-NH2) = O=C([C@@H]1C[C@@H](N[*:3])CN1[*:1])[*:2]; DO3AM = NC(=O)CN1CCN(CC(N)=O)CCN(CC(=O)*)CCN(CC(N)=O)CC1; DOTA = O=C(O)CN1CCN(CC(=O)O)CCN(CC(=O)*)CCN(CC(=O)O)CC1; Trp(5-Cl) = N[C@@H](Cc1c[nH]c2ccc(Cl)cc12)C(=O)O; Pyridine(2,6-diCH2) = c1cc(C[*:1])nc(C[*:2])c1; Trp(5-F) = N[C@@H](Cc1c[nH]c2ccc(F)cc12)C(=O)O; Trp(7-F) = N[C@@H](Cc1c[nH]c2c(F)cccc12)C(=O)O; 2Lut″ = 2,6-lutidylidene linking two thiols; APAc = 4-amino-1-carboxymethylpiperidine; 1Nal = N[C@@H](Cc1cccc2ccccc12)C(=O)O; Glutaryl = O=C(CCCC(=O)[*:2])[*:1]; AGLU = 1-amino-1-deoxy-D-glucitol; mli = maleimide bridging scaffold; Hyp = O=C(O)[C@@H]1C[C@@H](O)CN1; Cha = N[C@@H](CC1CCCCC1)C(=O)O; Cysteamide = C(CS[*:3])N[*:1]; Tle = CC(C)(C)[C@H](N)C(=O)O; αMeK = C[C@](N)(CCCCN)C(=O)O; hCys = N[C@@H](CCS)C(=O)O; Api = NC1(C(=O)O)CCNCC1; Thp = NC1(C(=O)O)CCOCC1; Dap = NC[C@H](N)C(=O)O; Aib = CC(C)(N)C(=O)O

Target: human Gastric Inhibitory Peptide Receptor (GIPR) (human) (UniProt P48546)
Sequence (P48546 22-466 limits assumed): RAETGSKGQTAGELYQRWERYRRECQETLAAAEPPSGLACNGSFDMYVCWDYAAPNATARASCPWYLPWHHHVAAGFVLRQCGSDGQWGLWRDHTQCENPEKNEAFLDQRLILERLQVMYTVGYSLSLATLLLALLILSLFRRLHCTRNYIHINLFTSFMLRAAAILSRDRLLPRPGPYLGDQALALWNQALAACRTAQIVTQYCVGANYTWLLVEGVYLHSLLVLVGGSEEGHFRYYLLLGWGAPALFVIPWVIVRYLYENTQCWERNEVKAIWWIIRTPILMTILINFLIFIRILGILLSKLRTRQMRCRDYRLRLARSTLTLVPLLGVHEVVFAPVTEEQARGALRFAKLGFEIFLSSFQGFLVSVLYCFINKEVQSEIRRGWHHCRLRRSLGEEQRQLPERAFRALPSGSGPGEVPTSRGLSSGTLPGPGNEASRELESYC
Assay: FACS competition vs biotinylated GIP-057 on CHO-K1-hGIPR cells; category A: pIC50 >8.0

pIC50 [pic50]	Binder
> 8	Ac-DW[Trp(5-Cl)][Pro(trans-4-NH2)]E[dL]C[Thp]LIC-NH2 (linker 7-11 via 2Lut″) [Ac-Asp-Trp-5Clw-Tap-Glu-leu-[Cys(2Lut)-Thp-Leu-Ile-Cys]-NH2]
> 8	Ac-D[1Nal][Trp(5-Cl)][Hyp]E[dL]C[Thp]LIC-NH2 (linker 7-11 via Pyridine(2,6-diCH2); SMILES CC[C@H](C)[C@@H]1NC(=O)[C@H](CC(C)C)NC(=O)C2(CCOCC2)NC(=O)[C@@H](NC(=O)[C@@H](CC(C)C)NC(=O)[C@H](CCC(=O)O)NC(=O)[C@@H]2C[C@@H](O)CN2C(=O)[C@H](Cc2c[nH]c3ccc(Cl)cc23)NC(=O)[C@H](Cc2cccc3ccccc23)NC(=O)[C@H](CC(=O)O)NC(C)=O)CSCc2cccc(n2)CSC[C@@H](C(N)=O)NC1=O) [Ac-Asp-1Ni-5Clw-Hyp-Glu-leu-[Cys(2Lut)-Thp-Leu-Ile-Cys]-NH2]
> 8	Ac-DW[Trp(5-Cl)][Hyp]E[dL]C[Thp]IIC-NH2 (linker 7-11 via Pyridine(2,6-diCH2); SMILES CC[C@H](C)[C@@H]1NC(=O)[C@H]([C@@H](C)CC)NC(=O)C2(CCOCC2)NC(=O)[C@@H](NC(=O)[C@@H](CC(C)C)NC(=O)[C@H](CCC(=O)O)NC(=O)[C@@H]2C[C@@H](O)CN2C(=O)[C@H](Cc2c[nH]c3ccc(Cl)cc23)NC(=O)[C@H](Cc2c[nH]c3ccccc23)NC(=O)[C@H](CC(=O)O)NC(C)=O)CSCc2cccc(n2)CSC[C@@H](C(N)=O)NC1=O) [Ac-Asp-Trp-5Clw-Hyp-Glu-leu-[Cys(2Lut)-Thp-Ile-Ile-Cys]-NH2]
> 8	Ac-DW[Trp(5-Cl)][Hyp]E[dL]C[Thp]RIC-NH2 (linker 7-11 via Pyridine(2,6-diCH2); SMILES CC[C@H](C)[C@@H]1NC(=O)[C@H](CCCNC(=N)N)NC(=O)C2(CCOCC2)NC(=O)[C@@H](NC(=O)[C@@H](CC(C)C)NC(=O)[C@H](CCC(=O)O)NC(=O)[C@@H]2C[C@@H](O)CN2C(=O)[C@H](Cc2c[nH]c3ccc(Cl)cc23)NC(=O)[C@H](Cc2c[nH]c3ccccc23)NC(=O)[C@H](CC(=O)O)NC(C)=O)CSCc2cccc(n2)CSC[C@@H](C(N)=O)NC1=O) [Ac-Asp-Trp-5Clw-Hyp-Glu-leu-[Cys(2Lut)-Thp-Arg-Ile-Cys]-NH2]
> 8	{AGLU-Glutaryl}-DW[Trp(5-Cl)][Pro(trans-4-NH2)]E[dL]C[Api](DO3AM)LIC-{APAc-dE(AGLU)-NH2} (linker 7-11 via Pyridine(2,6-diCH2)) [AGLU-Glutar-Asp-Trp-5Clw-Tap-Glu-leu-[Cys(2Lut)-Apc(DOTAM)-Leu-Ile-Cys]-APAc-glu(AGLU)-NH2]
> 8	Ac-DW[Trp(5-Cl)][Hyp]E[dL]C[Thp]LLC-NH2 (linker 7-11 via Pyridine(2,6-diCH2); SMILES CC(=O)N[C@@H](CC(=O)O)C(=O)N[C@@H](Cc1c[nH]c2ccccc12)C(=O)N[C@@H](Cc1c[nH]c2ccc(Cl)cc12)C(=O)N1C[C@H](O)C[C@H]1C(=O)N[C@@H](CCC(=O)O)C(=O)N[C@H](CC(C)C)C(=O)N[C@H]1CSCc2cccc(n2)CSC[C@@H](C(N)=O)NC(=O)[C@H](CC(C)C)NC(=O)[C@H](CC(C)C)NC(=O)C2(CCOCC2)NC1=O) [Ac-Asp-Trp-5Clw-Hyp-Glu-leu-[Cys(2Lut)-Thp-Leu-Leu-Cys]-NH2]
> 8	Ac-DW[Trp(5-Cl)][Hyp]E[dL]C[Thp]WIC-NH2 (linker 7-11 via Pyridine(2,6-diCH2); SMILES CC[C@H](C)[C@@H]1NC(=O)[C@H](Cc2c[nH]c3ccccc23)NC(=O)C2(CCOCC2)NC(=O)[C@@H](NC(=O)[C@@H](CC(C)C)NC(=O)[C@H](CCC(=O)O)NC(=O)[C@@H]2C[C@@H](O)CN2C(=O)[C@H](Cc2c[nH]c3ccc(Cl)cc23)NC(=O)[C@H](Cc2c[nH]c3ccccc23)NC(=O)[C@H](CC(=O)O)NC(C)=O)CSCc2cccc(n2)CSC[C@@H](C(N)=O)NC1=O) [Ac-Asp-Trp-5Clw-Hyp-Glu-leu-[Cys(2Lut)-Thp-Trp-Ile-Cys]-NH2]
> 8	Ac-DW[Trp(5-Cl)][Hyp]E[dL]C[Thp]LIC-NH2 (linker 7-11 via mli) [Ac-Asp-Trp-5Clw-Hyp-Glu-leu-[Cys(mli)-Thp-Leu-Ile-Cys]-NH2]
> 8	Ac-DW[Trp(5-Cl)][Hyp]E[dL]C[Thp]EIC-NH2 (linker 7-11 via Pyridine(2,6-diCH2); SMILES CC[C@H](C)[C@@H]1NC(=O)[C@H](CCC(=O)O)NC(=O)C2(CCOCC2)NC(=O)[C@@H](NC(=O)[C@@H](CC(C)C)NC(=O)[C@H](CCC(=O)O)NC(=O)[C@@H]2C[C@@H](O)CN2C(=O)[C@H](Cc2c[nH]c3ccc(Cl)cc23)NC(=O)[C@H](Cc2c[nH]c3ccccc23)NC(=O)[C@H](CC(=O)O)NC(C)=O)CSCc2cccc(n2)CSC[C@@H](C(N)=O)NC1=O) [Ac-Asp-Trp-5Clw-Hyp-Glu-leu-[Cys(2Lut)-Thp-Glu-Ile-Cys]-NH2]
> 8	Ac-DW[Trp(5-Cl)][Hyp]E[dL]C[Thp][Cha]IC-NH2 (linker 7-11 via Pyridine(2,6-diCH2)) [Ac-Asp-Trp-5Clw-Hyp-Glu-leu-[Cys(2Lut)-Thp-Cha-Ile-Cys]-NH2]
> 8	Ac-DW[Trp(5-Cl)][Hyp]E[dL]C[Thp]FIC-NH2 (linker 7-11 via Pyridine(2,6-diCH2); SMILES CC[C@H](C)[C@@H]1NC(=O)[C@H](Cc2ccccc2)NC(=O)C2(CCOCC2)NC(=O)[C@@H](NC(=O)[C@@H](CC(C)C)NC(=O)[C@H](CCC(=O)O)NC(=O)[C@@H]2C[C@@H](O)CN2C(=O)[C@H](Cc2c[nH]c3ccc(Cl)cc23)NC(=O)[C@H](Cc2c[nH]c3ccccc23)NC(=O)[C@H](CC(=O)O)NC(C)=O)CSCc2cccc(n2)CSC[C@@H](C(N)=O)NC1=O) [Ac-Asp-Trp-5Clw-Hyp-Glu-leu-[Cys(2Lut)-Thp-Phe-Ile-Cys]-NH2]

The next lines start with the binder.

Binder	pIC50 [pic50]
{AGLU-Glutaryl}-DW[Trp(5-Cl)][Pro(trans-4-NH2)]E[dL]C[αMeK](DOTA)LIC-{APAc-dE(AGLU)-NH2} (linker 7-11 via Pyridine(2,6-diCH2)) [AGLU-Glutar-Asp-Trp-5Clw-Tap-Glu-leu-[Cys(2Lut)-Amk(DOTA)-Leu-Ile-Cys]-APAc-glu(AGLU)-NH2]	> 8
Ac-D[Trp(5-Cl)][Trp(5-Cl)][Hyp]E[dL]C[Thp]LIC-NH2 (linker 7-11 via Pyridine(2,6-diCH2)) [Ac-Asp-5Clw-5Clw-Hyp-Glu-leu-[Cys(2Lut)-Thp-Leu-Ile-Cys]-NH2]	> 8
Ac-DW[Trp(5-Cl)][Hyp]E[dL]C[Thp]LI[hCys]-NH2 (linker 7-11 via mli) [Ac-Asp-Trp-5Clw-Hyp-Glu-leu-[Cys(mli)-Thp-Leu-Ile-Hcy]-NH2]	> 8
Ac-D[Phe(2,3-Cl2)][Trp(5-Cl)][Hyp]E[dL]C[Thp]LIC-NH2 (linker 7-11 via Pyridine(2,6-diCH2)) [Ac-Asp-Egp-5Clw-Hyp-Glu-leu-[Cys(2Lut)-Thp-Leu-Ile-Cys]-NH2]	> 8
Ac-D[Trp(5-F)][Trp(5-Cl)][Hyp]E[dL]C[Thp]LIC-NH2 (linker 7-11 via Pyridine(2,6-diCH2)) [Ac-Asp-5Fw-5Clw-Hyp-Glu-leu-[Cys(2Lut)-Thp-Leu-Ile-Cys]-NH2]	> 8
Ac-DW[Trp(5-Cl)][Hyp]E[dL]C[Thp]SIC-NH2 (linker 7-11 via Pyridine(2,6-diCH2); SMILES CC[C@H](C)[C@@H]1NC(=O)[C@H](CO)NC(=O)C2(CCOCC2)NC(=O)[C@@H](NC(=O)[C@@H](CC(C)C)NC(=O)[C@H](CCC(=O)O)NC(=O)[C@@H]2C[C@@H](O)CN2C(=O)[C@H](Cc2c[nH]c3ccc(Cl)cc23)NC(=O)[C@H](Cc2c[nH]c3ccccc23)NC(=O)[C@H](CC(=O)O)NC(C)=O)CSCc2cccc(n2)CSC[C@@H](C(N)=O)NC1=O) [Ac-Asp-Trp-5Clw-Hyp-Glu-leu-[Cys(2Lut)-Thp-Ser-Ile-Cys]-NH2]	> 8
Ac-DW[Trp(7-F)][Hyp]E[dL]C[Thp]LIC-NH2 (linker 7-11 via 2Lut″) [Ac-Asp-Trp-7Fw-Hyp-Glu-leu-[Cys(2Lut)-Thp-Leu-Ile-Cys]-NH2]	> 8
Ac-DW[Trp(5-Cl)][Hyp]V[dL]C[Thp]LIC-NH2 (linker 7-11 via Pyridine(2,6-diCH2)) [Ac-Asp-Trp-5Clw-Hyp-Val-leu-[Cys(2Lut)-Thp-Leu-Ile-Cys]-NH2]	> 8
Ac-DW[Trp(5-Cl)][Hyp]A[dL]C[Thp]LIC-NH2 (linker 7-11 via Pyridine(2,6-diCH2)) [Ac-Asp-Trp-5Clw-Hyp-Ala-leu-[Cys(2Lut)-Thp-Leu-Ile-Cys]-NH2]	> 8
Ac-DW[Trp(5-Cl)][Hyp]S[dL]C[Thp]LIC-NH2 (linker 7-11 via Pyridine(2,6-diCH2)) [Ac-Asp-Trp-5Clw-Hyp-Ser-leu-[Cys(2Lut)-Thp-Leu-Ile-Cys]-NH2]	> 8
{DOTA-Ttds}-DW[Trp(5-Cl)]PE[dL][Dap][Aib]LI[Cysteamide] (linker (positions not given here) via 3‑methylbenzoyl; not fully specified (bridges); printed as DOTA-Ttds-Asp-Trp-5Clw-Pro-Glu-leu-[Dap(3MeBz)-Aib-Leu-Ile-AET]) [DOTA-Ttds-Asp-Trp-5Clw-Pro-Glu-leu-[Dap(3MeBz)-Aib-Leu-Ile-AET]]	> 8
Ac-[dD]W[Trp(5-Cl)][Hyp]E[dL]C[Thp]LIC-NH2 (linker 7-11 via Pyridine(2,6-diCH2)) [Ac-asp-Trp-5Clw-Hyp-Glu-leu-[Cys(2Lut)-Thp-Leu-Ile-Cys]-NH2]	> 8
Ac-DW[Trp(5-Cl)][Hyp]E[dL]C[Thp]L[Tle]C-NH2 (linker 7-11 via Pyridine(2,6-diCH2); SMILES CC(=O)N[C@@H](CC(=O)O)C(=O)N[C@@H](Cc1c[nH]c2ccccc12)C(=O)N[C@@H](Cc1c[nH]c2ccc(Cl)cc12)C(=O)N1C[C@H](O)C[C@H]1C(=O)N[C@@H](CCC(=O)O)C(=O)N[C@H](CC(C)C)C(=O)N[C@H]1CSCc2cccc(n2)CSC[C@@H](C(N)=O)NC(=O)[C@H](C(C)(C)C)NC(=O)[C@H](CC(C)C)NC(=O)C2(CCOCC2)NC1=O) [Ac-Asp-Trp-5Clw-Hyp-Glu-leu-[Cys(2Lut)-Thp-Leu-Tle-Cys]-NH2]	> 8
